2 compounds from article PMC9158529, “AfCHIL, a Type IV Chalcone Isomerase, Enhances the Biosynthesis of Naringenin in Metabolic Engineering” (Frontiers in Plant Science, 2022) can be followed below.

One assay has as its system T1, AfCHS.
T1 construct: gene CHS; complete ORF in pET-15b, His6-tagged, E. coli BL21 (DE3), His-tag purified
In words: HPLC at […] nm, Michaelis-Menten fit. It is filed as biochemical, Allium fistulosum. The following applies: 200 uM malonyl-CoA, 20-200 uM p-coumaroyl-CoA, HEPES-KOH pH 7.0, 2 mM DTT, 35 °C, 30 min.

The subject of another assay is T2, AfCHS/AfCHIL.
T2 construct: gene CHS; complete ORFs in pET-15b, His6-tagged, E. coli BL21 (DE3), combined in the assay; legend calls it AfCHIL/AfCHS1; with Chalcone isomerase-like protein (type IV chalcone isomerase)
In words: HPLC at […] nm, Michaelis-Menten fit. The assay is classed as biochemical, Allium fistulosum. The note with it: AfCHIL present; 200 uM malonyl-CoA, 20-200 uM p-coumaroyl-CoA.

Assay [1] deals with AfCHS, chalcone synthase of Allium fistulosum (yeast two-hybrid fusion) (Allium fistulosum).
Assay [2] shares this target. This is another data set of the same source.

Turning to `CC(C)(COP(=O)(O)OP(=O)(O)OC[C@H]1O[C@@H](n2cnc3c(N)ncnc32)[C@H](O)[C@@H]1OP(=O)(O)O)[C@@H](O)C(=O)NCCC(=O)NCCSC(=O)/C=C/c1ccc(O)cc1` [p-coumaroyl-CoA], the Km (usually the concentration of substrate that gives half-maximal velocity) with AfCHS was found to be 55.1 ± 12.5 µM; with AfCHS/AfCHIL, 53.9 ± 10 µM.
“AfCHIL, type IV chalcone isomerase of Allium fistulosum (yeast two-hybrid fusion) (natural protein)”: the Kcat of purified His6-AfCHS (p-coumaroyl-CoA and malonyl-CoA as substrates) in the presence of purified His6-AfCHIL, against AfCHS alone in assay [1] stood at 2.7 times. In assay [2], this compound gave a by-product CTAL produced by purified AfCHS in vitro with AfCHIL present, against AfCHS alone of 30 % decrease and a naringenin produced by purified AfCHS in vitro with AfCHIL present, against AfCHS alone of 2.2 times.
